Test results: patent publication US20240124590A1 (ULTRAHUMAN EIGHT, published 2024)

Assays:
[1] = target: T1, human PD1 protein (construct not stated) (human, UniProt Q15116 25-170, limits assumed); test: direct ELISA
T1 construct: Coated protein of the off-target ELISA; whole entry named

[2] = target: T2, cyno PD1 protein (construct not stated) (cynomolgus monkey, UniProt Q15116 25-170 (human entry), limits assumed); test: direct ELISA
T2 construct: may be two constructs; also called cyno PD1 in the Alphascreen screen
T2 chain: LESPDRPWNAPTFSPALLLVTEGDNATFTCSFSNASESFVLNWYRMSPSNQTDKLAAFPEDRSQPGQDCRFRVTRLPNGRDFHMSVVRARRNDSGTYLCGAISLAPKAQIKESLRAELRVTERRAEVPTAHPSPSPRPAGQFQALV

[3] = target: T3, recombinant ectodomain of human VEGFR2 (human, UniProt P35968 20-764); test: direct ELISA
T3 construct: whole entry named

[4] = target: T4, recombinant ectodomain of rhesus VEGFR2 (rhesus); test: direct ELISA
T4 construct: whole entry named
T4 chain: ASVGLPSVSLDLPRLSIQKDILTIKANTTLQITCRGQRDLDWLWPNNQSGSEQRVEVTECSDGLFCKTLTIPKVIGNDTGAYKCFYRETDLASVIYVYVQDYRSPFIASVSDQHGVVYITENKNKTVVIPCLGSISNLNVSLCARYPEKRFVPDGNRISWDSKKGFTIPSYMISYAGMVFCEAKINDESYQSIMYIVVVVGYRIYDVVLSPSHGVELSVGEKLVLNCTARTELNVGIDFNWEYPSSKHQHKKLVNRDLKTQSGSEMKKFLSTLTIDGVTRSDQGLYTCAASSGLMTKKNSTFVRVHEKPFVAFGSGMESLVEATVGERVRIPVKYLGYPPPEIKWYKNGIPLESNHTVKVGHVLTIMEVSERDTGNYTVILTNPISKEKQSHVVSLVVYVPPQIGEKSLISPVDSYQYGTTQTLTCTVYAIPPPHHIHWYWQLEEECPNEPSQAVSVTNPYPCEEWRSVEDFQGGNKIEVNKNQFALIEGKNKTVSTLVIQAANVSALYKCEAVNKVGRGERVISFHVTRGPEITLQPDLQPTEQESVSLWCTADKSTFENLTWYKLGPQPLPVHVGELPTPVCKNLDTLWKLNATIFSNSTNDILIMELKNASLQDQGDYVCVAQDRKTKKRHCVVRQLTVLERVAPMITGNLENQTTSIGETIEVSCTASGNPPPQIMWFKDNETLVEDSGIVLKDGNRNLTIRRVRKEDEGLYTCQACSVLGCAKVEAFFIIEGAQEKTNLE

[5] = target: T5, human PD1 expressed on cells (human, UniProt Q15116 25-288); test: cell microarray re-array, transfected HEK293
T5 construct: also called human PD1+ CHO cells; PD1-transfected HEK293 cells
T5 sequence (Q15116 25-288 limits assumed): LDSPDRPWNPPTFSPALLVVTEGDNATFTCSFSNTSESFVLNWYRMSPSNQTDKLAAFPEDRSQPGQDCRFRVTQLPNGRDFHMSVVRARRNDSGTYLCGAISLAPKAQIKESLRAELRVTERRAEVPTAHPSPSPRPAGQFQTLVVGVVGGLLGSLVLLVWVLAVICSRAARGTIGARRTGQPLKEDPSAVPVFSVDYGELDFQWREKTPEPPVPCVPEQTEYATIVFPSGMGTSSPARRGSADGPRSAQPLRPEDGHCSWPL
Method: (§1) Antibody binding was detected using AF647 fluorescent secondary anti-human IgG1 antibody. Primary hits (duplicate spots) were identified by analysing fluorescence (AF647 and ZsGreen1) on ImageQuant. Vectors encoding all hits were sequenced to confirm their correct identities. […] Slides were analysed as above. Flow cytometry confirmation screen: Expression vectors encoding ZsGreen1 only, or ZsGreen1 and PD1, FZDS, KDR or ULBP2, were transfected into human HEK293 cells. Each live transfectant was incubated with […] of each of the test antibodies and the Isotype control antibody. Cells were washed, and incubated with the same AF647 anti-human IgG Fc detection antibody as used in the cell microarray screens. Cells were again washed, and analysed by flow cytometry using an Accuri flow cytometer (BD). A 7AAD live/dead dye was used to exclude dead cells, and ZsGreen1-positive cells (i.e. transfected cells) were selected for analyses.

[6] = target: T6, human FZD5 (frizzled class receptor 5) on transfected HEK293 cells (human, UniProt Q13467 27-585); test: cell microarray re-array, transfected HEK293
T6 construct: also called FZDS; FZ5
T6 sequence (Q13467 27-585 limits assumed): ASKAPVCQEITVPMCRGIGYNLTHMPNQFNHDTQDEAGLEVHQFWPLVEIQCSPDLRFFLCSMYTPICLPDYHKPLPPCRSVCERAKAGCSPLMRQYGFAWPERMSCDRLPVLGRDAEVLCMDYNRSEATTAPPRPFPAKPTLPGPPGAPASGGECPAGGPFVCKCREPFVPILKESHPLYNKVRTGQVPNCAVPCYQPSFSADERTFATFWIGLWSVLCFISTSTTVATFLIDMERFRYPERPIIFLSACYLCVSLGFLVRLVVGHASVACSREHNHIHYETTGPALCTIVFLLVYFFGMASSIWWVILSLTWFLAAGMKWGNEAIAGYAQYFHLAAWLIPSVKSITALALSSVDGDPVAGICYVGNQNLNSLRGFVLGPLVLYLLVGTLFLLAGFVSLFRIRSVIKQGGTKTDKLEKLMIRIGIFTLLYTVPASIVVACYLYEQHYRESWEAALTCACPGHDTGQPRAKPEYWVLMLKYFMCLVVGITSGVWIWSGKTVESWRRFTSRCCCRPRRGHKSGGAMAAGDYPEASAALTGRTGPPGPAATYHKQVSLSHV
Method: as §1

[7] = target: T7, human KDR (VEGFR2) on cells (human, UniProt P35968 20-1356); test: cell microarray re-array, transfected HEK293
T7 construct: Transfected HEK293 cells (arrays, flow cytometry) and human VEGFR2 reporter cells
Method: as §1

[8] = target: T8, human ULBP2 (UL16 binding protein 2) on transfected HEK293 cells (human, UniProt Q9BZM5 26-217); test: cell microarray re-array, transfected HEK293
T8 sequence: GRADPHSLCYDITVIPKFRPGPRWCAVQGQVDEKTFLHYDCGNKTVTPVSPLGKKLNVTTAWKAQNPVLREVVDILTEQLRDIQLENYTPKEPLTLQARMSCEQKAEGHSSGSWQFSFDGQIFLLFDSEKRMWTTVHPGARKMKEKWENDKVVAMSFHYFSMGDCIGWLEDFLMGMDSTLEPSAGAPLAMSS
Method: as §1

[9] = target: T9, human monomeric VEGFR2-his protein (human, UniProt P35968 20-764); test: SPR (Biacore), IgG captured, VEGFR2-his analyte
T9 construct: Soluble analyte; whole entry named; also called human VEGFR2-his; not shown: his tag
Method: (§2) Affinity (KD) of purified IgGs was determined via SPR with antigen in-solution on a Biacore 3000 (GE). A mouse anti-human antibody (CH1 specific) was immobilized on a CM5 Sensor Chip to a level of 2000 RU in acetate buffer at pH 4.5 using amine coupling following the Wizard instructions for two channels. One channel was used for background signal correction. The standard running buffer HBS-EP pH 7.4 was used. Regeneration was performed with a single injection of 10 μl of 10 mM Glycine at pH 1.5 at 20 μl/minute. IgG samples were injected for 2 minutes at 50 nM at 30 μl/min followed by and off-rate of 60 seconds. […] The obtained sensorgrams were analysed using the Biacore 3000 evaluation (BIAevaluation) software. The KD was calculated by simultaneous fitting of the association and dissociation phases to a 1:1 Langmuir binding model.

[10] = target: T10, rhesus monomeric VEGFR2-his protein (rhesus); test: SPR (Biacore), IgG captured, VEGFR2-his analyte
T10 construct: Soluble analyte; whole entry named; also called rhesus VEGFR2-his; not shown: his tag
T10 chain: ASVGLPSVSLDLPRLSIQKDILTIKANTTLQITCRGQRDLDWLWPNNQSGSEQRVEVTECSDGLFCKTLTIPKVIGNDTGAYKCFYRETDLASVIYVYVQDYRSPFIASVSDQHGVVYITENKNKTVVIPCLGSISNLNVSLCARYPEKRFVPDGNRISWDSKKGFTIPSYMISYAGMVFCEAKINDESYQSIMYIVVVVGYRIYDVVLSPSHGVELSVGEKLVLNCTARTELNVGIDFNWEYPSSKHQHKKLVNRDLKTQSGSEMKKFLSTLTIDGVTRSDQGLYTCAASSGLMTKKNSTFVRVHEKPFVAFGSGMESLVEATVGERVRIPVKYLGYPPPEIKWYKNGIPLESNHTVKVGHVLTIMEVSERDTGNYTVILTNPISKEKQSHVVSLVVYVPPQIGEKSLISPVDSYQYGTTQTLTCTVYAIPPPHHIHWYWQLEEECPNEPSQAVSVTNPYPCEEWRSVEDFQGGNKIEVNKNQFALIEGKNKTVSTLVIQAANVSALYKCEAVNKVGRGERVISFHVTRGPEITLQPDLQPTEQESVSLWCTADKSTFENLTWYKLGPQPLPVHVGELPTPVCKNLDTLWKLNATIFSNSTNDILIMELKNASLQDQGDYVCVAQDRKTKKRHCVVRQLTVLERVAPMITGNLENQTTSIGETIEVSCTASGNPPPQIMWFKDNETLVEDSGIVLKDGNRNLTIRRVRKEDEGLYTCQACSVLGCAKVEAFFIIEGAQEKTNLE
Method: as §2

Measured: binding result

T1 sequence (Q15116 25-170 limits assumed): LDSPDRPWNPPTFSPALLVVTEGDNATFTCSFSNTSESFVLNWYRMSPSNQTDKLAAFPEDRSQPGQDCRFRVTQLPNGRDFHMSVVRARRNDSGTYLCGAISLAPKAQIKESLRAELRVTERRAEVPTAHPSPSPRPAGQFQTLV

B1: mVH/mVL Mab005-IgG1 (antibody, V domains shown)
VH: EVMLVESGGGLVKPGGSLKLSCAASGFTFSSYMMSWVRQTPEKRLEWVATISGGGANTYYPDSVKGRFTISRDNAKNTLYLQMSSLRSEDTALYYCARQLYYFDYWGQGTTLTVSS
VL: DIQMTQSPASQSASLGEGVTITCLASQTIGTWLTWYQQKPGKSPQLLIYTATSLADGVPSRFSGSGSGTKFSFKISSLQAEDFVTYYCQQVYSIPWTFGGGTKLEIK
notes: Murine PD1-mVH/PD1-mVL on human IgG1null + Ckappa; also called original murine hybridoma v-domains
binds: all assays above
